Test results as given in US20240425569A1 (VISTERRA, published 2024).
Where two headings read alike, the source gives them in different places.

How the values were obtained:
[1] = target: T1, Singapore/2008 (serotype II EDIII); experiment: ELISA; row Singapore/2008, serotype II, genotype Cosmopolitan
T1 construct: also called ED3-DV2/Sing08; DENV-2 Sing

[2] = target: T2, EDIII-DV2 (E protein domain III of dengue virus serotype DV-2) (dengue virus serotype DV-2, UniProt P14337 573-677)
T2 construct: also called DENV-2; EDIII of DV-2

[3] = target: T3, Mexico/1977 (BC287/97)* (serotype IV EDIII) (Dengue virus 4); experiment: ELISA; row Mexico/1977 (BC287/97)*, serotype IV, genotype IIa
T3 construct: isolated EDIII protein; also called EDIII of DENV-4 Mexico/1997 (BC287/97); DENV-4 BC2

[4] = target: T4, Brazil/2011 (serotype IV EDIII); experiment: SPR; row Brazil/2011, serotype IV, genotype I
T4 E protein domain III (EDIII): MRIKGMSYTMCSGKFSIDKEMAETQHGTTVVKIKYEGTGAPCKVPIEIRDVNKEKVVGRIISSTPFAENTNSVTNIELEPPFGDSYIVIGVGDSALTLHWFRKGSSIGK

[5] = target: T5, EDIII-DV4 (E protein domain III of dengue virus serotype DV-4) (dengue virus serotype DV-4, UniProt P09866 572-679); experiment: competition ELISA; column 'EDIII-DV4'
T5 construct: also called DENV-4

[6] = target: T6, Mexico/2007 (serotype I EDIII)
T6 construct: also called ED3-DV1/Mexico07
T6 E protein domain III (EDIII): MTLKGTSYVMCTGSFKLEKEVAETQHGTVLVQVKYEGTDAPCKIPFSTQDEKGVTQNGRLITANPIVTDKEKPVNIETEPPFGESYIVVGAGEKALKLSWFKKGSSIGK

[7] = target: T7, Vietnam/2007 (serotype II EDIII); experiment: ELISA; row Vietnam/2007, serotype II, genotype Asian II
T7 construct: Genotype Asian II; also called ED3-DV2/Viet07
T7 E protein domain III (EDIII): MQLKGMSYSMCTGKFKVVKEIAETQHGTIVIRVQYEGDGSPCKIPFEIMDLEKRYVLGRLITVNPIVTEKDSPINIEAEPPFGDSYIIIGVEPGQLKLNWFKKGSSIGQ

[8] = target: T8, Philippines/1956 (H87)* (serotype III EDIII) (Dengue virus 3)
T8 construct: isolated EDIII protein

[9] = target: T9, Malaysia/2005 (serotype I EDIII)
T9 construct: also called ED3-DV1/Malaysia05
T9 E protein domain III (EDIII): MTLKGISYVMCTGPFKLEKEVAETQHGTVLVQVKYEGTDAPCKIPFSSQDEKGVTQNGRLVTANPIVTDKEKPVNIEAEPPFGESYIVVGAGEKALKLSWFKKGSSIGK

[10] = target: T10, Thailand/1997 (serotype IV EDIII); experiment: ELISA; row Thailand/1997, serotype IV, genotype III
T10 E protein domain III (EDIII): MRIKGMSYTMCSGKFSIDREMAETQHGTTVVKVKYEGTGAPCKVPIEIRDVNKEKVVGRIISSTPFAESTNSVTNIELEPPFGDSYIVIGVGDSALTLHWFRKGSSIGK

[11] = target: T11, EDIII-DV3 (E protein domain III of dengue virus serotype DV-3) (dengue virus serotype DV-3, UniProt P27915 571-678)
T11 construct: also called DENV-3; EDIII of DV-3

[12] = target: T12, Venezuela/2007 (serotype II EDIII); experiment: ELISA; row Venezuela/2007, serotype II, genotype SE-Asian/American
T12 construct: also called ED3-DV2/Venezuela07
T12 E protein domain III (EDIII): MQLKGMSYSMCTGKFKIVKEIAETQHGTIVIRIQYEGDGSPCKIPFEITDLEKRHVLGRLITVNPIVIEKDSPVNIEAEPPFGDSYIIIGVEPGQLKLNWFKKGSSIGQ

[13] = target: T13, Singapore/2009 (serotype III EDIII)
T13 construct: also called ED3-DV3/Sing09; DENV-3 Sing
T13 E protein domain III (EDIII): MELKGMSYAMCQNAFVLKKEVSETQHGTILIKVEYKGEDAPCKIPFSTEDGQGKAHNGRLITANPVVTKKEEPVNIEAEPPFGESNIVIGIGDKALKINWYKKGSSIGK

[14] = target: T14, Peru/1995 (serotype II EDIII); experiment: Kd table, method not stated; Ag DENV-2 Peru
T14 construct: also called ED3-DV2/Peru95; DENV-2 Peru

[15] = target: T15, New Guinea/1944 (NGC)* (serotype II EDIII) (Dengue virus 2); experiment: Kd table, method not stated; Ag DENV-2 NGC
T15 construct: isolated EDIII protein; also called EDIII of DENV-2 NGC

[16] = target: T5, EDIII-DV4 (E protein domain III of …); experiment: competition ELISA; column 'EDIII-DV4 [1/7]'
[17] = target: T9, Malaysia/2005 (serotype I EDIII)
[18] = target: T16, New Caledonia/2009 (serotype IV EDIII); experiment: ELISA; row New Caledonia/2009, serotype IV, genotype IIb
T16 construct: also called ED3-DV4/NewCal09; DENV-4 NC
T16 E protein domain III (EDIII): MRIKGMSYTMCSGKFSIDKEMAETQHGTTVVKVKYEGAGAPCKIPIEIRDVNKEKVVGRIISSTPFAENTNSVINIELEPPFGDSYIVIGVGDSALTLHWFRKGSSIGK

[19] = target: T8, Philippines/1956 (H87)* (serotype III …); experiment: SPR; row Philippines/1956 (H87)*, serotype III, genotype I

T8 sequence (P27915 576-671): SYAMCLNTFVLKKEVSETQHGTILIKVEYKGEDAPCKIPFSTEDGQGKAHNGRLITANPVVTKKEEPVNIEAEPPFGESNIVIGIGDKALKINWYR
T15 sequence (P14340 578-673): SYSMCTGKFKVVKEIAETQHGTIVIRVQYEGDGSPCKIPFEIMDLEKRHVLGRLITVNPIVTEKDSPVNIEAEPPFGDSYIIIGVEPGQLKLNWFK
T11 sequence (P27915 571-678, tags left off): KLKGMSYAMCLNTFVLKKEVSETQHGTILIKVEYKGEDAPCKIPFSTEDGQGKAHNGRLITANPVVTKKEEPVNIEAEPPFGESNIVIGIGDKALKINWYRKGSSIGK
T2 sequence (P14337 573-677, tags left off): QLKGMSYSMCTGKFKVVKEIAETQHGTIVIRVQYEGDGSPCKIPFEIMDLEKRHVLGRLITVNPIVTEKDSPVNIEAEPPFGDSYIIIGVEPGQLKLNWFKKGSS

B1: antibody D88 (antibody, V domains shown)
VH: QVQLVQSGAEVKKPGASVKVSCKAGFNIKDVYMSWVRQAPEQGLEWMGRIDPENGDTKYDPKLQGRVTMTADTSTNTAYMELRSLRSDDTAVYYCARGWEGFAYWGQGTLVTVSS
VL: DIVMTQSPASLAVSLGERATISCRASENVDKYGNSFMHWYQQKPGQPPKLLIYRASELQWGVPDRFSGSGSGTDFTLTISSLQAEDVAVYYCQRSNEVPWTFGQGTKLEIK
notes: also called mAb D88
[1]
  Kd: < 0.1 nM
[2]
  Kd: 0.016 nM
[3]
  Kd: 4.32 nM
[4]
  Kd: 7.9 nM
[5]
  Kd: 6.12 nM
[6]
  Kd: 0.071 nM
[7]
  Kd: < 0.1 nM
[8]
  Kd: 1.2 nM
[9]
  Kd: < 0.1 nM
[10]
  Kd: 612 nM
[11]
  Kd: 1 nM
[12]
  Kd: < 0.1 nM
[13]
  Kd: 0.35 nM
[14]
  Kd: < 0.1 nM
[15]
  Kd: < 0.1 nM
[16]
  Kd: 3.12 nM
[17]
  Kd: 0.064 nM
[18]
  Kd: 10.8 nM
[19]
  Kd: 1 nM
